These results are taken from publication PMC2978110, “EBP1 Is a Novel E2F Target Gene Regulated by Transforming Growth Factor-β”.

Positions count from the first letter of the chain named. Names may count otherwise.

Data set [1] concerns the target T1, GST-E2F1 (UniProt Q01094 1-437). The data set can be described thus: EMSA; EMSA as in ref 34 (buffer, pH, temperature not given); 1.8 ug GST-E2F1 per reaction, 24 ng/ul ds mutant adenovirus E2 E2F-site oligo as nonspecific competitor. The conditions noted are these: protein: recombinant, label: 32P. Background: Mobility shift assays separate free from complexed probe on a gel.

Data set [2] addresses T1, GST-E2F1. The data set can be described thus: EMSA; additional low-mobility complex; EMSA as in ref 34 (buffer, pH, temperature not given); 1.8 ug GST-E2F1 per reaction, 24 ng/ul ds mutant adenovirus E2 E2F-site oligo as nonspecific competitor. The conditions noted are these: protein: recombinant; label: 32P; blunt.
In data set [3] the target is T1, GST-E2F1. The data set can be described thus: competition; 100-fold excess vs EBP1 -158 and -113 probes; substantially reduced; EMSA as in ref 34 (buffer, pH, temperature not given); 1.8 ug GST-E2F1 per reaction, 24 ng/ul ds mutant adenovirus E2 E2F-site oligo as nonspecific competitor. The conditions noted are these: protein: recombinant; blunt.
For data set [4], the target named is T1, GST-E2F1. The data set can be described thus: competition; 100-fold excess vs EBP1 -158 and -113 probes; EMSA as in ref 34 (buffer, pH, temperature not given); 1.8 ug GST-E2F1 per reaction, 24 ng/ul ds mutant adenovirus E2 E2F-site oligo as nonspecific competitor. The conditions noted are these: protein: recombinant, blunt.
[5] abbreviates: terminal G:G mismatch as printed.

T1 sequence (Q01094 whole entry): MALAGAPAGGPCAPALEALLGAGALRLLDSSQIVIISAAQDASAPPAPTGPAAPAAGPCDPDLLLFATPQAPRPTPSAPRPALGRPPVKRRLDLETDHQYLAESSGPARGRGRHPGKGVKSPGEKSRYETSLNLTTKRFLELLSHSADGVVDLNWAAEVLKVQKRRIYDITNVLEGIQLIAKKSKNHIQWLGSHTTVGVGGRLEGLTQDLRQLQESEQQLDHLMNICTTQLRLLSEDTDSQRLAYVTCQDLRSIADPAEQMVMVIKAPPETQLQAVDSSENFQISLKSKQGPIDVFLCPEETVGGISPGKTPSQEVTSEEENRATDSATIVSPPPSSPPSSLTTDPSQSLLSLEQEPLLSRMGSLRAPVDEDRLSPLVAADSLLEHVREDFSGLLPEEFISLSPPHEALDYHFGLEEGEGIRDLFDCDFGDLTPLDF

B1: EBP1 -166 (-158*) (dsDNA)
DNA 1: TTAGGAAAAAAAGAGGCAGGCTGGGAATTGTAGTTCGAAGGCCCTCGAGAGCGGCTAGAGTC
DNA 2: GACTCTAGCCGCTCTCGAGGGCCTTCGAACTACAATTCCCAGCCTGCCTCTTTTTTTCCTAA
As for B1, in the data set with GST-E2F1 [1] (blunt), the binding result is on record as “binds”.

B2: EBP1 -166 (both*) (dsDNA)
DNA 1: B1 DNA 1 with G51A, C52A, G53A, G54A, C55A
DNA 2: B1 DNA 2 with G8T, C9T, C10T, G11T, C12T
Regarding B2, in the data set with GST-E2F1 [1] (blunt), the binding result is “no binding”.

B3: EBP1 -166 wt (-166 to -104) (dsDNA)
DNA 1: B1 DNA 1 with A7G, A8C, A9G, A10C, A11G
DNA 2: B1 DNA 2 with T52C, T53G, T54C, T55G, T56C
B3: the binding result in the data set with GST-E2F1 [2] was “binds”.

B4: EBP1 -166 (-113*) (dsDNA)
DNA 1: TTAGGAGCGCGAGAGGCAGGCTGGGAATTGTAGTTCGAAGGCCCTCGAGAAAAAATAGAGTC
DNA 2: GACTCTATTTTTTCTCGAGGGCCTTCGAACTACAATTCCCAGCCTGCCTCTCGCGCTCCTAA
For B4, in the data set with GST-E2F1 [1] (blunt), the binding result was “binds”.

B5: TIMELESS E2F site (dsDNA)
DNA 1: CAGAAAATTCATAGCGCTGTGATTTTTAGATC
DNA 2: GATCTAAAAATCACAGCGCTATGAATTTTCTG
On to B5, for which the binding result with GST-E2F1 [3] was “binds”.

B6: TIMELESS E2F site mutant (dsDNA)
DNA 1: B5 DNA 1 with G14A, C15A, G16A, C17A
DNA 2: B5 DNA 2 with G16T, C17T, G18T, C19T
In the case of B6, in the data set with GST-E2F1 [4], the binding result is reported as “no binding”.

B7: EBP1 -136 probe (-136 to -100) (dsDNA)
DNA 1: TAGTTCGAAGGCCCTCGAGAGCGGCTAGAGTCTGG
DNA 2: GCAGACTCTAGCCGCTCTCGAGGGCCTTCGAACTA
As for B7, the binding result with GST-E2F1 [1] (setting [5]) is “binds”.

B8: EBP1 -168 probe (-168 to -130) (dsDNA)
DNA 1: GCTTAGGAGCGCGAGAGGCAGGCTGGGAATTGTAGTTC
DNA 2: GAACTACAATTCCCAGCCTGCCTCTCGCGCTCCTAAGC
In the case of B8, the binding result with GST-E2F1 [1] (blunt) is recorded as “binds”.

B9: EBP1 -155 probe (-155 to -120) (dsDNA)
DNA 1: GAGCTTCGAACTACAATTCCCAGCCTGCCTCTCGCGCTG
DNA 2: CAGCGCGAGAGGCAGGCTGGGAATTGTAGTTCGAAGCTC
Consider B9, for which the binding result in the data set with GST-E2F1 [1] (blunt) is recorded as “no binding”.

B10: EBP1 -158* (dsDNA)
DNA 1: GCTTAGGAAAAAAAGAGGCAGGCTGGGAATTGTAGTTC
DNA 2: GAACTACAATTCCCAGCCTGCCTCTTTTTTTCCTAAGC
For B10, in the data set with GST-E2F1 [1] (blunt), the binding result is “no binding”.

B11: DHFR E2F site (dsDNA)
DNA 1: CTAGAGCAATTTCGCGCCAAACTTGGATC
DNA 2: GATCCAAGTTTGGCGCGAAATTGCTCTAG
On to B11, for which, in the data set with GST-E2F1 [4] (label: 32P as probe), the binding result was “binds”.

B12: EBP1 -113* (dsDNA)
DNA 1: TAGTTCGAAGGCCCTCGAGAAAAAATAGAGTCTGG
DNA 2: GCAGACTCTATTTTTTCTCGAGGGCCTTCGAACTA
With B12, in the data set with GST-E2F1 [1] (setting [5]), the binding result is reported as “no binding”.

B13: DHFR E2F site mutant (dsDNA)
DNA 1: CTAGAGCAATTTAAAAACAAACTTGGATC
DNA 2: GATCCAAGTTTGTTTTTAAATTGCTCTAG
As to B13, in the data set with GST-E2F1 [4], the binding result is “no binding”.

B14: N-myc E2F site (dsDNA)
DNA 1: GATCCTTTTGGCGCGAAAGGCTTAGATC
DNA 2: GATCTAAGCCTTTCGCGCCAAAAGGATC
As to B14, in the data set with GST-E2F1 [4], the binding result was “binds”.
